Experimental data published in the supplement of paper PMC10567573.

B1: POMT2 (parent)
chain: VLRSRIRFIHLVTGCVLGSSGKVL
B2: ZNF263 (parent)
chain: FAHSSNLLRHQRIHTGERPYKCPE

Variants of: B1
Assay: protein stability index of a GFP-peptide fusion (GPS, HEK-293T) (PSI 1-6); higher = more stable
Conditions: c terminus: a fixed tail appended
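Further: lentivirally expressed fusions sorted by FACS into six bins by GFP to DsRed ratio, PSI derived from sequencing read proportions per bin multiplied by bin number.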

Protein stability index of substitutions, site by site:
R7: A 3.22, V 2.05, M 3.48, K 3.58, T 3, Y 2.4, L 2.52, W 2.28, P 2.44, D 1.59, E 2.94, H 3.62, G 2.67, C 2.94, N 2.44
R5: N 2.48, M 2.92, G 2.25, S 1.06, P 3.07, E 2.83, D 2.67, I 2.1, F 2.21, L 3.1, W 2.14, H 2.82, V 2.4, Y 2.99, T 1.99
S4: N 4.14, Y 3.18, V 2.38, Q 3.06, H 2.09, L 3.33, F 2.29, K 3.75, R 2.66, E 2.36, I 2.53, D 2.56, T 3.04
T13: Y 3.54, H 2.02, G 1.51, V 3.37, A 2.01, L 3.22, K 2.22, I 2.31, F 1.64, E 2.08, D 2.35, Q 2.86, P 4.82
I9: G 2.62, P 1.42, Y 3.49, M 2.73, N 2.64, S 2.78, R 1.39, Q 2.87, D 1.63, K 2.98, V 1.5, H 4.48, F 1.85, L 2.5, A 4.43, W 1.71, C 1.74, E 2.34
V12: R 2.65, H 2.88, T 4.51, M 3.2, C 2.2, S 2.53, K 3.48, P 2.25, Q 1.05, W 1.94, F 3.19, E 4.33, L 2.13, N 3.83, I 2.81, G 1.84
R3: P 3.15, L 2.04, A 1.24, H 2.39, T 2.65, I 3.85, N 2.43, Y 2.82, V 2.18, C 2.14, E 2.31, F 2.27, G 3.29, S 3.27, M 3.2
L2: Q 3.47, E 1.06, V 2.83, I 2.71, F 2.75, N 2.4, D 3.93, H 2.81, S 2.72, R 3.38, K 3.28, C 2.48, A 3.86, P 1.76, M 2.49
L11: H 2.02, C 3.74, K 2.13, D 2.48, I 2.01, P 2.4, R 1.73, S 3.27, E 2.96, Q 2.87, M 1.68, G 2.18, T 3.02, N 2.07, A 2.33
H10: G 3.29, R 2.5, W 2.63, Y 2.84, F 3.38, K 1.58, M 1.99, L 1.87, D 2.56, I 3.35, P 3.05, C 2.67, T 2.92, A 2.56, N 2.3
F8: S 1.57, T 2.35, W 2.35, E 1.76, Q 1.67, D 1.88, N 1.9, G 1.66, H 2.79, R 2.11, I 3.13, V 2.68, C 3.6, A 1.04, K 2.4, P 1.48
C15: G 3.07, F 1.72, I 1.67, E 3.73, A 3.27
G14: T 2.33, D 1.88, P 2.97, S 3.28, R 2.85, W 2.51, Y 3.68, M 1.85, A 4.85, L 2.46, F 3.15, I 3.23, K 3.83, N 2.11, E 1.96, V 4.81
I6: P 3.19, A 1.64, R 1.78, H 2.53, K 2.08, G 2.81, V 3.12, L 2.83, C 4.38, F 3.11, S 1.83, D 1.89, M 2.88, E 2.45, T 1.3, Y 3.93
V1: W 1.4, D 2.88, A 2.38, T 3, H 2.8, K 2.88, M 3.35, G 1.39, E 2.61, N 3.04, L 2.15, Y 2.51, R 1.96, I 2.76, P 3.01, S 3.21

Variants of: B2
Assay: as above
Conditions: c terminus: a fixed tail appended

Protein stability index of substitutions, site by site:
C22: I 2.06, F 2.08, N 2.95, E 3.37, A 3.1, M 2.26, T 2.03, Q 2.9, H 2.8, R 2.29, W 2.08, Y 2.44, K 2.15, G 2.36, S 3.48, L 2.25, P 2.58, D 3.74, V 2.13
R18: Y 1.86
E24: Q 2.33, M 2.4, I 1.7, V 1.56, R 2.15, P 1.87, W 2.72, D 2.44, S 1.84, L 1.48, Y 2.28, F 1.59, N 1.88, A 1.89, K 2.46, G 1.92, T 1.87, H 2.16, C 1.56
P23: T 2.29, E 2.67, R 1.95, K 2.52, V 1.87, C 1.64, H 2.36, N 2.56, F 2.11, I 2.58, A 2.54, S 2.41, Y 2.5, L 2.12, G 2.82, D 2.47, W 2.2, Q 3, M 2.2
Y20: Q 3.48, K 3.43, P 3.02, M 2.72, C 2.37, E 3.68, R 2.91, G 3.32, L 2.81, I 2.63, F 2.77, N 3.29, W 2.75, T 3.38, H 3.23, D 3.46, S 3.31, A 3.51, V 3.48
P19: L 2.65, K 3.02, V 2.67, G 2.59, W 1.83, R 2.9, M 3.05, T 3.02, A 2.54, N 2.75, F 2.74, H 2.89, D 3.71, I 2.38, Q 3.17, Y 2.58, C 2.48, S 2.69, E 3.67
K21: N 3.13, E 2.79, P 2.51, R 1.97, L 2.4, F 2.56, C 2.56, H 2.49, D 2.62, W 2.64, G 2.21, I 2.6, Q 2.3, T 2.83, A 2.41, M 2.07, V 2.65, S 2.29, Y 2.81
